Patent publication US20250092148A1 (Kyowa Kirin, published 2025)
Where a chain is given by its changes, count along the chain named.

T1: human CD116 soluble antigen (His-tag form) (human, UniProt P15509 23-320)
T1 construct: extracellular domain; expressed in Expi293F cells; also called hCD116-His
T1 sequence (looked up): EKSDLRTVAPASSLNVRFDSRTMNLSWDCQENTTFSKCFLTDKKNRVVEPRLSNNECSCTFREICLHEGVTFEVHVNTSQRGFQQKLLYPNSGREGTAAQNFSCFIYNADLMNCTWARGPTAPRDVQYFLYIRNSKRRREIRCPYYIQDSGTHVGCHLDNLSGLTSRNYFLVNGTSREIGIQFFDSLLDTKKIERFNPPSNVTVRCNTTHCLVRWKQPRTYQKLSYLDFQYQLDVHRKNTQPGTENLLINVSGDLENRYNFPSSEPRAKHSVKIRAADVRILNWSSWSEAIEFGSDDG

B1: 116-413 (Fab, V domains shown)
VH: QVQLVQSGAEVKKPGASVKVSCKVSGYTLTDLSMHWVRQAPGKGLEWMGGFDPEDGETIYAQKFQGRVTMTEDTSTDTAYMELSSLRSEDTAVYYCATGLFYYQYGMDVWGQGTTVTVSS
VL: not shown
notes: phage library clone, E. coli culture supernatant
B2: 116-398 (Fab, V domains shown)
VH: B1 VH with Q1E, T30A, D31E, T58R, T76K, A97T, T115M
VL: not shown
notes: phage library clone, tested as E. coli culture supernatant (FLAG-His tag)
B3: 116-412 (Fab, V domains shown)
VH: B1 VH with Q1E, F51L, T115L
VL: not shown
notes: as for B1
B4: 116-421 (Fab, V domains shown)
VH: B1 VH with V5Q, T58R, S75A, Y95H
VL: not shown
notes: as for B1
B5: 116-433 (Fab, V domains shown)
VH: B1 VH with L32F, S33A, M34I, T58R, A97T, T115L
VL: not shown
notes: as for B1
B6: 116-435 (Fab, V domains shown)
VH: B1 VH with Q1E, D31E, T58R
VL: not shown
notes: as for B1
B7: 116-439 (Fab, V domains shown)
VH: B1 VH with V5Q, T58R, T115L
VL: not shown
notes: as for B1
B8: 116-463 (Fab, V domains shown)
VH: B1 VH with L32F, S33A, M34I, T58R
VL: not shown
notes: as for B1
B9: 116-464 (Fab, V domains shown)
VH: B1 VH with T58R, V93M
VL: not shown
notes: as for B1
B10: 116-465 (Fab, V domains shown)
VH: B1 VH with T28P, K43E, F51S, M70V, S85N
VL: not shown
notes: as for B1
B11: 116-466 (Fab, V domains shown)
VH: B1 VH with T58R, G66D, T115L
VL: not shown
notes: as for B1

Biological target: T1, human CD116 soluble antigen (His-tag …)
Test: screening by ELISA on biotinylated antigen and by flow cytometry, E. coli supernatant
Protocol: Using the obtained monoclonal Escherichia coli culture supernatant, screening for clones that bind to both human CD116 and monkey CD116 was performed by ELISA and FCM described below.
In screening by ELISA, a MAXISORP plate (manufactured by NUNC Corporation) was immobilized with streptavidin (manufactured by Thermo Fisher Scientific) and blocked using 1% BSA-PBS (manufactured by Nacalai Tesque, Inc.), and then the biotinylated human CD116 soluble antigen (His-tag form) or the biotinylated monkey CD116 soluble antigen (His-tag form) binds thereto. Each Escherichia coli culture supernatant was added to each well of the plate and allowed to react for 60 minutes at room temperature, and then each well was washed 3 times with PBS-T.
Next, HRP-labeled Goat poly, anti-human IgG F(ab′)₂ (manufactured by Abcam) was diluted 1000 times with 1% BSA-PBS, and 50 μL thereof was added to each well, followed by incubating at room temperature for 30 minutes. After washing the microplate 3 times with PBS-T, 50 μL of TMB color developing substrate solution (manufactured by DAKO) was added to each well, followed by incubating at room temperature for 10 minutes. A 2N HCl solution (50 μL/well) was added to each well to stop the color developing reaction, and an absorbance at a wavelength of 450 nm (reference wavelength: 570 nm) was measured using a plate reader (EnSpire: manufactured by PerkinElmer).

**Q.** Does B1 bind?
**A.** binds

**Q.** Does B2 bind?
**A.** binds

**Q.** Does B3 bind?
**A.** binds

**Q.** Does B4 bind?
**A.** binds

**Q.** Does B5 bind?
**A.** binds

**Q.** Does B6 bind?
**A.** binds

**Q.** Does B7 bind?
**A.** binds

**Q.** Does B8 bind?
**A.** binds

**Q.** Does B9 bind?
**A.** binds

**Q.** Does B10 bind?
**A.** binds

**Q.** Does B11 bind?
**A.** binds
